# Key:
# [1] = molecular target: T1, pol30-Rad27E6 of the mutant strain (yeast, UniProt P15873 1-258, IDCL DIDADFLKIEEL to DGDYDILKIREL); experiment: ELISA; PCNA captured from crude yeast extract (3 mg/ml) on plates coated with anti-PCNA antibody; bound GFP-tagged partner detected by anti-GFP, normalised to the anti-His signal of PCNA; settings: partners not purified
# T1 construct: PCNA (POL30), yeast; source: yeast, sole source of PCNA under the native POL30 promoter, in crude cell extract
# T1 sequence: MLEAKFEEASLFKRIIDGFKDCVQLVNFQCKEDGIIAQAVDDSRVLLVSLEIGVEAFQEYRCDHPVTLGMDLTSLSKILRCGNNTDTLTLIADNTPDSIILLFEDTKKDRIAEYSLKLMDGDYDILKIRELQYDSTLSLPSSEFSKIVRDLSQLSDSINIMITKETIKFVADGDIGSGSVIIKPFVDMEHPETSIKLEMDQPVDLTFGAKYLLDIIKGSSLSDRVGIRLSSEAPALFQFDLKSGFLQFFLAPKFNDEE
# pol30-79 (yeast), P15873 = molecular target: T2, pol30-79 (yeast), P15873; experiment: two-hybrid; quantitative Y2H: generation time of the YRG2 strains in liquid SC-Leu-Trp-His, given relative to cells expressing WT PCNA; average of at least 3 experiments; settings: remark: other sources report otherwise
# T2 chain: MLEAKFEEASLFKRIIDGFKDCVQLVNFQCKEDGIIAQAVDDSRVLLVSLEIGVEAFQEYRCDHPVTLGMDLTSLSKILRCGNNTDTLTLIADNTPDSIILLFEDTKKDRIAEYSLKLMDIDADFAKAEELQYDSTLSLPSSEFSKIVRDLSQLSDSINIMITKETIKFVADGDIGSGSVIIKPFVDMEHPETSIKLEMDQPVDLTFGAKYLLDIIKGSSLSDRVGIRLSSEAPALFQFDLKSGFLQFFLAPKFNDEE
# [2] = molecular target: T3, pol30-Rad30E2 of the mutant strain (yeast, UniProt P15873 1-258, IDCL DIDADFLKIEEL to DDDWDFLKILEL); experiment: ELISA; PCNA captured from crude yeast extract (3 mg/ml) on plates coated with anti-PCNA antibody; bound GFP-tagged partner detected by anti-GFP, normalised to the anti-His signal of PCNA; settings: partners not purified
# T3 construct: PCNA (POL30), yeast; source: yeast, sole source of PCNA under the native POL30 promoter, in crude cell extract
# T3 sequence: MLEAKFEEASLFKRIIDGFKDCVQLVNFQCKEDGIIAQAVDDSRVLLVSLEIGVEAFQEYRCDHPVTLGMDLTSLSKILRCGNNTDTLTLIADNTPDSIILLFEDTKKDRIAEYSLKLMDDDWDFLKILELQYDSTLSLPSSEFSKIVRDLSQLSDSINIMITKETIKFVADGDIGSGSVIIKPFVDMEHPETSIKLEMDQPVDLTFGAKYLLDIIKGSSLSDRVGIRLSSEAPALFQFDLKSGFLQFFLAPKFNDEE
# pol30-Rad30E9 = molecular target: T4, pol30-Rad30E9 (yeast, UniProt P15873 1-258, IDCL DIDADFLKIEEL to DNDWDFLKIDEL); experiment: two-hybrid; quantitative Y2H: generation time of the YRG2 strains in liquid SC-Leu-Trp-His, given relative to cells expressing WT PCNA; average of at least 3 experiments; settings: partners not purified
# T4 construct: PCNA (POL30), yeast; also called Pol30-Rad30E9p; source: yeast two-hybrid fusion (pAD-GAL4, strain YRG2)
# T4 sequence: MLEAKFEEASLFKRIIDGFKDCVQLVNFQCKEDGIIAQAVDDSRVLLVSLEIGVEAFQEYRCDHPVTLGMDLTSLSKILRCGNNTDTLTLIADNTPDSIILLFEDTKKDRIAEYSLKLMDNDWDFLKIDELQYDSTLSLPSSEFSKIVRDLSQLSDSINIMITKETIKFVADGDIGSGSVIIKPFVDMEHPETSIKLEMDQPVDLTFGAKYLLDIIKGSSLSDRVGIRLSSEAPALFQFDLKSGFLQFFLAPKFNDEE
# pol30-Rad30E2 = molecular target: T5, pol30-Rad30E2 (yeast, UniProt P15873 1-258, IDCL DIDADFLKIEEL to DDDWDFLKILEL); experiment: as above; settings: partners not purified
# T5 construct: PCNA (POL30), yeast; source: yeast two-hybrid fusion (pAD-GAL4, strain YRG2)
# T5 sequence: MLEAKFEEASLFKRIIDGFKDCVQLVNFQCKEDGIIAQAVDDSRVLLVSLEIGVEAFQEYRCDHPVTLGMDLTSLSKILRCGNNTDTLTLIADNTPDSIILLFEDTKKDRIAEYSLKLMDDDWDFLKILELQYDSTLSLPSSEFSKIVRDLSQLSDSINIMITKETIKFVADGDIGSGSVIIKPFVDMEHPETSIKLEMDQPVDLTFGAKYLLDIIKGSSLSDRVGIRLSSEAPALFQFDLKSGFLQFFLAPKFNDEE
# pol30-Rad27L1 = molecular target: T6, pol30-Rad27L1 (yeast, UniProt P15873 1-258, IDCL DIDADFLKIEEL to D––VDILKIGEL); experiment: two-hybrid; pAD-GAL4-PCNA WT or mutant (called bait) and pBD-GAL4-partner (called prey) in strain YRG2; 10-fold serial dilutions spotted on SC-Leu-Trp-His plates, 30°C, 3 d; growth similar to WT PCNA is denoted 1; settings: partners not purified
# T6 construct: PCNA (POL30), yeast; two residues after the first aspartic acid of the IDCL are deleted; source: yeast two-hybrid fusion (pAD-GAL4, strain YRG2)
# T6 sequence: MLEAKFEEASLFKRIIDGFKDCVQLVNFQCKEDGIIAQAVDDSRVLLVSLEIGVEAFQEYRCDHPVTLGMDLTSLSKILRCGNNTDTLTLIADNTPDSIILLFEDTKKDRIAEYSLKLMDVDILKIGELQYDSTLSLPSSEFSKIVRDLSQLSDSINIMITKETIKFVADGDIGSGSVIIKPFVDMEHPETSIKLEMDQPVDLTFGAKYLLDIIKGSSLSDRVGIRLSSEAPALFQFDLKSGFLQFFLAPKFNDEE
# pol30-Rad27L2 = molecular target: T7, pol30-Rad27L2 (yeast, UniProt P15873 1-258, IDCL DIDADFLKIEEL to D––VDTLKITEL); experiment: as above; settings: partners not purified
# T7 construct: PCNA (POL30), yeast; two residues after the first aspartic acid of the IDCL are deleted; source: yeast two-hybrid fusion (pAD-GAL4, strain YRG2)
# T7 sequence: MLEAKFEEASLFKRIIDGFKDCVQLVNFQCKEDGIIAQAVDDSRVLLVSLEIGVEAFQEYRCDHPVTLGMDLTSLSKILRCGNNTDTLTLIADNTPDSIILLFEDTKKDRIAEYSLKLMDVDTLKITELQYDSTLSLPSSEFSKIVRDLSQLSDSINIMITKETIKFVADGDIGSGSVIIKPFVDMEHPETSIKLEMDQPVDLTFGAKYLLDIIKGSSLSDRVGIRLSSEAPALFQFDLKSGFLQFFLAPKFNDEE
# [3] = molecular target: the molecule itself; experiment: SEC; Superdex 200 10/300 GL, activity buffer (300 mM NaCl, 50 mM Tris-HCl, pH 8), monomer concentrations of 3–8 µM
binder,measurement,setting,value
"GFP-tagged Rad27 (natural protein, yeast, UniProt P26793 1-382, looked up, Rad27, yeast, tagged at its natural locus; source: yeast, GFP-tagged at the natural locus, in crude cell extract; not shown: GFP, C-terminal, kept) MGIKGLNAIISEHVPSAIRKSDIKSFFGRKVAIDASMSLYQFLIAVRQQDGGQLTNEAGETTSHLMGMFYRTLRMIDNGIKPCYVFDGKPPDLKSHELTKRSSRRVETEKKLAEATTELEKMKQERRLVKVSKEHNEEAQKLLGLMGIPYIIAPTEAEAQCAELAKKGKVYAAASEDMDTLCYRTPFLLRHLTFSEAKKEPIHEIDTELVLRGLDLTIEQFVDLCIMLGCDYCESIRGVGPVTALKLIKTHGSIEKIVEFIESGESNNTKWKIPEDWPYKQARMLFLDPEVIDGNEINLKWSPPKEKELIEYLCDDKKFSEERVKSGISRLKKGLKSGIQGRLDGFFQVVPKTKEQLAAAAKRAQENKKLNKNKNKVTKGRR",increase in the amount of complex relative to the POL30 strain,[1],17%
"Rad30, Q04049 1-632 (natural protein) MSKFTWKELIQLGSPSKAYESSLACIAHIDMNAFFAQVEQMRCGLSKEDPVVCVQWNSIIAVSYAARKYGISRMDTIQEALKKCSNLIPIHTAVFKKGEDFWQYHDGCGSWVQDPAKQISVEDHKVSLEPYRRESRKALKIFKSACDLVERASIDEVFLDLGRICFNMLMFDNEYELTGDLKLKDALSNIREAFIGGNYDINSHLPLIPEKIKSLKFEGDVFNPEGRDLITDWDDVILALGSQVCKGIRDSIKDILGYTTSCGLSSTKNVCKLASNYKKPDAQTIVKNDCLLDFLDCGKFEITSFWTLGGVLGKELIDVLDLPHENSIKHIRETWPDNAGQLKEFLDAKVKQSDYDRSTSNIDPLKTADLAEKLFKLSRGRYGLPLSSRPVVKSMMSNKNLRGKSCNSIVDCISWLEVFCAELTSRIQDLEQEYNKIVIPRTVSISLKTKSYEVYRKSGPVAYKGINFQSHELLKVGIKFVTDLDIKGKNKSYYPLTKLSMTITNFDIIDLQKTVVDMFGNQVHTFKSSAGKEDEEKTTSSKADEKTPKLECCKYQVTFTDQKALQEHADYHLALKLSEGLNGAEESSKNLSFGEKRLLFSRKRPNSQHTATPQKKQVTSSKNILSFFTRKK",fold change in affinity relative to WT PCNA (Y2H generation time),"pol30-79 (yeast), P15873",0.4 fold
"GFP-tagged Rad30 (natural protein, yeast, UniProt Q04049 1-632, looked up, Rad30, yeast, tagged at its natural locus; source: yeast, GFP-tagged at the natural locus, in crude cell extract; not shown: GFP, C-terminal, kept) MSKFTWKELIQLGSPSKAYESSLACIAHIDMNAFFAQVEQMRCGLSKEDPVVCVQWNSIIAVSYAARKYGISRMDTIQEALKKCSNLIPIHTAVFKKGEDFWQYHDGCGSWVQDPAKQISVEDHKVSLEPYRRESRKALKIFKSACDLVERASIDEVFLDLGRICFNMLMFDNEYELTGDLKLKDALSNIREAFIGGNYDINSHLPLIPEKIKSLKFEGDVFNPEGRDLITDWDDVILALGSQVCKGIRDSIKDILGYTTSCGLSSTKNVCKLASNYKKPDAQTIVKNDCLLDFLDCGKFEITSFWTLGGVLGKELIDVLDLPHENSIKHIRETWPDNAGQLKEFLDAKVKQSDYDRSTSNIDPLKTADLAEKLFKLSRGRYGLPLSSRPVVKSMMSNKNLRGKSCNSIVDCISWLEVFCAELTSRIQDLEQEYNKIVIPRTVSISLKTKSYEVYRKSGPVAYKGINFQSHELLKVGIKFVTDLDIKGKNKSYYPLTKLSMTITNFDIIDLQKTVVDMFGNQVHTFKSSAGKEDEEKTTSSKADEKTPKLECCKYQVTFTDQKALQEHADYHLALKLSEGLNGAEESSKNLSFGEKRLLFSRKRPNSQHTATPQKKQVTSSKNILSFFTRKK",increase in the amount of complex relative to the POL30 strain,[2],70%
"Rad30 (natural protein, yeast, UniProt Q04049 1-632, looked up, Rad30 (DNA polymerase), yeast; also called pBD-Rad30; source: yeast two-hybrid fusion (pBD-GAL4, strain YRG2)) MSKFTWKELIQLGSPSKAYESSLACIAHIDMNAFFAQVEQMRCGLSKEDPVVCVQWNSIIAVSYAARKYGISRMDTIQEALKKCSNLIPIHTAVFKKGEDFWQYHDGCGSWVQDPAKQISVEDHKVSLEPYRRESRKALKIFKSACDLVERASIDEVFLDLGRICFNMLMFDNEYELTGDLKLKDALSNIREAFIGGNYDINSHLPLIPEKIKSLKFEGDVFNPEGRDLITDWDDVILALGSQVCKGIRDSIKDILGYTTSCGLSSTKNVCKLASNYKKPDAQTIVKNDCLLDFLDCGKFEITSFWTLGGVLGKELIDVLDLPHENSIKHIRETWPDNAGQLKEFLDAKVKQSDYDRSTSNIDPLKTADLAEKLFKLSRGRYGLPLSSRPVVKSMMSNKNLRGKSCNSIVDCISWLEVFCAELTSRIQDLEQEYNKIVIPRTVSISLKTKSYEVYRKSGPVAYKGINFQSHELLKVGIKFVTDLDIKGKNKSYYPLTKLSMTITNFDIIDLQKTVVDMFGNQVHTFKSSAGKEDEEKTTSSKADEKTPKLECCKYQVTFTDQKALQEHADYHLALKLSEGLNGAEESSKNLSFGEKRLLFSRKRPNSQHTATPQKKQVTSSKNILSFFTRKK",fold change in affinity relative to WT PCNA (Y2H generation time),pol30-Rad30E9,1.6 fold
same,fold change in affinity relative to WT PCNA (Y2H generation time),pol30-Rad30E2,1.4 fold
same,fold change in affinity relative to WT PCNA (Y2H),pol30-Rad27L1,0.4 fold
same,fold change in affinity relative to WT PCNA (Y2H),pol30-Rad27L2,0.5 fold
"proliferating cell nuclear antigen (PCNA), 6×Histidine-tagged (natural protein, yeast, PCNA (POL30), yeast; cloned into pET28 by NdeI and XhoI; also called WT PCNA; Pol30p; source: E. coli BL21, purified (Ni-NTA)) MLEAKFEEASLFKRIIDGFKDCVQLVNFQCKEDGIIAQAVDDSRVLLVSLEIGVEAFQEYRCDHPVTLGMDLTSLSKILRCGNNTDTLTLIADNTPDSIILLFEDTKKDRIAEYSLKLMDIDADFLKIEELQYDSTLSLPSSEFSKIVRDLSQLSDSINIMITKETIKFVADGDIGSGSVIIKPFVDMEHPETSIKLEMDQPVDLTFGAKYLLDIIKGSSLSDRVGIRLSSEAPALFQFDLKSGFLQFFLAPKFNDEE",stoichiometry N,[3],3

# From article PMC2953525, “Subtle Alterations in PCNA-Partner Interactions Severely Impair DNA Replication and Repair” (PLoS Biology, 2010)
